Laboratory results published in PMC8070792, “Impaired Ca^2+ Sensitivity of a Novel GCAP1 Variant Causes Cone Dystrophy and Leads to Abnormal Synaptic Transmission Between Photoreceptors and Bipolar Cells” (International Journal of Molecular Sciences, 2021).
Numbering of substitutions follows the chain as printed. Names and notes keep the numbering of the source. Read-outs that look alike come from different tables or passages of the source.

T1: human guanylate cyclase 2 (GC2) (human, UniProt P51841 51-1108)
T1 sequence (looked up): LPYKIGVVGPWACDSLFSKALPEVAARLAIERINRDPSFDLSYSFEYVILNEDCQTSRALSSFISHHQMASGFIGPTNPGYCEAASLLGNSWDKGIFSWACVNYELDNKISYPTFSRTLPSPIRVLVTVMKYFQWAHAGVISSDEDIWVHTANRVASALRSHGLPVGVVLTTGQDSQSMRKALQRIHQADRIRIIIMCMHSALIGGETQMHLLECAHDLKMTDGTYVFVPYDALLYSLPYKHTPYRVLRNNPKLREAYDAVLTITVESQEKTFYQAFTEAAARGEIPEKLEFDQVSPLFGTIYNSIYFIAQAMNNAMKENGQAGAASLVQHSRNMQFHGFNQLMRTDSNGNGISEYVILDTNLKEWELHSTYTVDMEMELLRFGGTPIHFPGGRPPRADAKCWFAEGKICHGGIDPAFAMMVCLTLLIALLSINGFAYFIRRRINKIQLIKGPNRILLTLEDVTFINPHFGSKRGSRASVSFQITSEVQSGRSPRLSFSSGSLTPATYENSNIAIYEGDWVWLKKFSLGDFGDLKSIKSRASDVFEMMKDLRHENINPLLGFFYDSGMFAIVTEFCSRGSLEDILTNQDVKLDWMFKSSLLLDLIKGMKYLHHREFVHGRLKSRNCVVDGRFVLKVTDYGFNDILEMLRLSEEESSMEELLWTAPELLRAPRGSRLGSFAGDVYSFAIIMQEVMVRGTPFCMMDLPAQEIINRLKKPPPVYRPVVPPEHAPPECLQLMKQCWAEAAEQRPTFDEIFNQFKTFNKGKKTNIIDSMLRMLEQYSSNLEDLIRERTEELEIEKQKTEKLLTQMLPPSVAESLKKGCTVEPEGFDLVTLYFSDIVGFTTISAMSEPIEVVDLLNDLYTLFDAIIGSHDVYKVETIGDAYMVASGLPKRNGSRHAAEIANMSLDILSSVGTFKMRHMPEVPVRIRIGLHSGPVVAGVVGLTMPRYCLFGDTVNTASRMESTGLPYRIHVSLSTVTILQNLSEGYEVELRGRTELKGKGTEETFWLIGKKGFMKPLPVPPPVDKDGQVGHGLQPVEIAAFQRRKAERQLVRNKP

T2: human guanylate cyclase 1 (GC1) (human, UniProt Q02846 52-1103)
T2 sequence (looked up): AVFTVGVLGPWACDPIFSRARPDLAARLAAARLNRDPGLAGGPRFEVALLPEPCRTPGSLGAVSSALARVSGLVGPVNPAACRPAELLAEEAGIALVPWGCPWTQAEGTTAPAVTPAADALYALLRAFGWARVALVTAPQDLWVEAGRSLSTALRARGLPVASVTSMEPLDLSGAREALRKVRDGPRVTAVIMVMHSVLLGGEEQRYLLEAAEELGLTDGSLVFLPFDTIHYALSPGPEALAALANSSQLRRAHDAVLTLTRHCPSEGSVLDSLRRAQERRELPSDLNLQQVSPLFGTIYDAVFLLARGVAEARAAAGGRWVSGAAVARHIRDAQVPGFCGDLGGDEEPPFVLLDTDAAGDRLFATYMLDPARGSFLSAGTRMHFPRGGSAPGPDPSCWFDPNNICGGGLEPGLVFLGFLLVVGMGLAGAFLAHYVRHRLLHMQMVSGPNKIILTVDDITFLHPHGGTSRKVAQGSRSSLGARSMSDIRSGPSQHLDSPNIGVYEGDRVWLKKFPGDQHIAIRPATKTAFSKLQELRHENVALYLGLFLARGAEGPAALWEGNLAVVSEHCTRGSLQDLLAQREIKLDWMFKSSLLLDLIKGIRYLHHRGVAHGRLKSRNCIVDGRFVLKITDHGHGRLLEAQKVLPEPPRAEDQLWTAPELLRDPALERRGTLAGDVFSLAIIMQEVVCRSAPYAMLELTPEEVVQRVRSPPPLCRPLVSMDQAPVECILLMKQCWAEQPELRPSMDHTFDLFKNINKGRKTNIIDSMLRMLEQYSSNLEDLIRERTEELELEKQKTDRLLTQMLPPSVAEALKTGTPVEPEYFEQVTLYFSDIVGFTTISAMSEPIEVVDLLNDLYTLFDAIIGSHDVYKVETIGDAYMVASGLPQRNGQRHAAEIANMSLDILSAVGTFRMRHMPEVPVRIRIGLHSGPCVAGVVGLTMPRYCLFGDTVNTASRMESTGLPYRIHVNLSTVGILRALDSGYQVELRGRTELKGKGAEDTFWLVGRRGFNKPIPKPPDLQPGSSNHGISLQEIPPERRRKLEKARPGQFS

B1: wild-type human GCAP1-E6S (guanylate cyclase-activating protein 1, myristoylated) (natural protein)
chain: MGNVMSGKSVEELSSTECHQWYKKFMTECPSGQLTLYEFRQFFGLKNLSPSASQYVEQMFETFDFNKDGYIDFMEYVAALSLVLKGKVEQKLRWYFKLYDVDGNGCIDRDELLTIIQAIRAINPCSDTTMTAEEFTDTVFSKIDVNGDGELSLEEFIEGVQKDQMLLDTLTRSLDLTRIVRRLQNGEQDEEGADEAAEAAG
modifications: myristoylation on the N-terminal Gly residue
B2: GCAP1 N104K-G105R (guanylate cyclase-activating protein 1, myristoylated, on the E6S background) (natural protein, human, UniProt P43080 1-201, looked up)
chain: B1 chain with N104K, G105R
modifications: myristoylation on the N-terminal Gly residue
notes: cDNA in pET-11a between NdeI and NheI; E6S introduced to allow myristoylation by yeast NMT; N104K and G105R introduced by site-directed mutagenesis; N104K-G105R is the patient's variant; E6S is a change made by people; Myristoylation on the N-terminal Gly implies that the initiator Met is removed (surmised); No tag is mentioned; also called N104K-G105R GCAP1; double mutant; source: E. coli …

Assays:
[1] = molecular target: T1, human guanylate cyclase 2 (GC2)
[2] = molecular target: T2, human guanylate cyclase 1 (GC1)
[3] = molecular target: the molecule itself; assay: SEC; analytical SEC on Superose 12 10/300 GL; 42 µM protein, 200 µl injected; 20 mM Tris-HCl pH 7.5, 150 mM KCl, 1 mM DTT; with 500 µM EGTA + 1 mM Mg2+ or 500 µM Ca2+ + 1 mM Mg2+; apparent molecular mass from a calibration curve
[4] = molecular target: T1, human guanylate cyclase 2 (GC2); assay: cell-based or functional assay
[5] = molecular target: T2, human guanylate cyclase 1 (GC1); assay: cell-based or functional assay

Binder	X-fold of Ca2+-dependent regulation of GC2 (cGMP synthesis by HEK293 membranes with 5 µM GCAP1, low Ca2+ <19 nM against high Ca2+ ~30 µM) [1]	X-fold of Ca2+-dependent regulation of GC1 (cGMP synthesis by HEK293 membranes with 5 µM GCAP1, low Ca2+ <19 nM against high Ca2+ ~30 µM) [2]	stoichiometry N [3]	X-fold of Ca2+-dependent regulation of GC2 (cGMP synthesis by HEK293 membranes with 5 µM GCAP1, low Ca2+ <19 nM against high Ca2+ ~30 µM) [4]	X-fold of Ca2+-dependent regulation of GC1 (cGMP synthesis by HEK293 membranes with 5 µM GCAP1, low Ca2+ <19 nM against high Ca2+ ~30 µM) [5]
B1	10.8	37.4	–	–	–
B2	–	–	2	0.6	0.47
